± gives the half width of the 95% confidence interval.
Assays:
[1] = folding stability dG unfold from chymotrypsin proteolysis; higher = more stable
Procedure, shortened: (§1)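 Digests were run with trypsin and chymotrypsin at 11 concentrations in threefold dilutions, plus a no-protease condition, on designed mini-proteins in a PA-tagged cDNA display construct. The mini-proteins were under 80 residues, had no cysteine, and were kept only when AlphaFold2 dimer inter-PAE was above 15. After sequencing, Bayesian fitting of the counts gave K50, from which unfolding free energy was derived against a sequence-predicted unfolded-state K50 and a shared folded-state K50, per protease or combined.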

[2] = folding stability dG unfold from trypsin proteolysis; higher = more stable
Procedure, shortened: as §1

[3] = folding stability dG unfold (combined trypsin and chymotrypsin); higher = more stable
Procedure, shortened: as §1

Sequence | folding stability dG unfold [1] [kcal/mol] | folding stability dG unfold [2] [kcal/mol] | folding stability dG unfold [3] [kcal/mol]
SAGGSAGGSASVVADENKIVVTFPNGKVVELDLSDPKKAKEKLLALKPLDIPPITLELVPPASAGGSAGGSA [r18_68_JUSTAS] | 0.842 ± 0.041 | -0.139 ± 0.071 | 0.572 ± 0.12
SAGGSAGGPVKIHVHVNPEEGYYMIEVRSGNEPRHIMIPMDKEEIKSFIENLPPGIEVEIHPMPSAGGSAGG [r6_401_TrROS] | 1.19 ± 0.072 | 1.37 ± 0.067 | 1.4 ± 0.14
SAGGMEKVKVRVFFIDEETGEPREVEVEATLEELRELIEKIPDKGRVLVKLELPDEERIVTLEELKERSAGG [r13_254_TrMRF] | 3.23 ± 0.1 | 1.79 ± 0.065 | 2.76 ± 0.15
SAGGSAEIWIWMPYDMIESLAKKAGDPNVKVEPVEPPDDNPGEPYWFKITLKDNGKPKREIEFWFPSAGGSA [r15_428_TrROS] | 2.67 ± 0.045 | 1.34 ± 0.031 | 2.23 ± 0.15
SAGGSAGGSAETFTLPGGYTITVEPTEGGVKVTITHPDGSKGEVELGPTEPLVVDPDGATILASAGGSAGGS [r12_281_TrMRF] | 1.66 ± 0.093 | 1.49 ± 0.079 | 1.66 ± 0.1
SAGGSAGGSAGGDEEAIKEAAAAAPKDTTTVPVLLPDGKEVTLEVTWHPDGSRTITVRQSAGGSAGGSAGGS [r10_1017_JUSTAS] | 1.6 ± 0.098 | -0.0882 ± 0.15 | 1.15 ± 0.072
SAGGSAEIEGLEFEIVEVTEVRVLPDGTVEITLRVRLPDGSYLRITITVSPDGTVTIDIELLPADESAGGSA [r15_559_TrROS_Hall] | 4.18 ± 0.1 | 4.51 ± 0.21 | 4.48 ± 0.18
SAGGSAGGSAGGPKTVRIVEYDPETQRVVIELEDGSKVVIEVPPGMSVEELKGKTLTVEPSAGGSAGGSAGG [r7_296_TrROS_Hall] | 0.569 ± 0.1 | 1.79 ± 0.051 | 1.14 ± 0.17
SAGGLRVHPNSLYIWIPPGGNFDDFVKEIAQELQKKGKPMEIKVEPFPDGWYWIRIKVDGKDIEIWMSAGGS [r16_771_TrROS] | 3.24 ± 0.039 | 2.02 ± 0.065 | 3.02 ± 0.1
SAGGYDFDPRGEFPFPNGVKVEVWEMTWPDGNPMTMIEIEATIPPPPKPPMSPEDAKENNKDMAKNNSAGGS [r16_8_TrROS] | 0.403 ± 0.16 | -0.415 ± 0.12 | 0.211 ± 0.21
SAGLIKIERTGDKLTITIPLKGAPPGAQVRIMVFTDGKVEEHWIPPGKEVEITIPPDNIHIFIQIYPPDSAG [r5_867_TrROS] | 3.15 ± 0.14 | 3.22 ± 0.38 | 3.33 ± 0.32
SAGGSAGGSAGPIDPNSTRPVPADYVVIRIRGDEKPRYFVVHPEYAKEFAERHGAELYYESAGGSAGGSAGG [r17_109_TrMRF] | 0.582 ± 0.082 | 0.0223 ± 0.14 | 0.44 ± 0.076
SAMKPGEKVKIKIITFEKKKDPKTGEEKIEMKEIEIEATITEVEEKDGKVTVKIKIENLPPGAMIIIEKSAG [r14_412_TrROS_Hall] | 3.64 ± 0.087 | 2.05 ± 0.069 | 3.18 ± 0.086
SAGGSSPASVRTSQTTVTDPATGRTRSVTVTTLPDGTTVSTFDSPGGSLVTTTTTPDGTTTTVTADSAGGSA [r2_109_JUSTAS] | 1.38 ± 0.022 | -0.0855 ± 0.13 | 1.05 ± 0.066
SAGGSAGGSAGGSMYIKIPGEPGDLREVVIEGKKVKVTPDANNPDKVTYTLPDGTKIALSAGGSAGGSAGGS [r4_488_JUSTAS] | 0.957 ± 0.14 | 0.117 ± 0.064 | 0.638 ± 0.073
MKIRVEITVRNPDGEELKIEIVLSLEELEELRKEGKPLTLEELKALIEERARKLAEELDLEVEIKIVEIEPS [r1_174_TrROS_Hall] | 5.06 ± 0.89 | 4.11 ± 0.35 | > 6
SAGGSAGGSAIMINIDLEYDPGDGTIELEYKISFMDPGGKPMGMITIRLEIRIPPPEPDPDDKSAGGSAGGS [r12_254_TrROS] | 3.64 ± 0.39 | 3.08 ± 0.31 | 3.37 ± 0.46
SAMIEIPFSPDTPVEERLAMIKEAIEAAKAAGIEPKEITLIVPPDREDILEAVEEAGIPKERVKIKDQPSAG [r14_589_JUSTAS] | 1.49 ± 0.057 | 0.789 ± 0.045 | 1.24 ± 0.07
SAMKYVELKLTITVPKEKEEEIEKLKKALEKLGAEIVSVEVEYDEETEEVTVTVTIRIENLSEEELKKASAG [r14_956_TrROS_Hall] | 2.97 ± 0.08 | 1.97 ± 0.048 | 2.69 ± 0.086
SAGGSAGGSAGDENEKPKPKMQMKMIQIKFPPEDLPELAEEFGIDSVHIMPNGSLFIMVYSAGGSAGGSAGG [r11_64_TrROS] | 1.48 ± 0.1 | 1.07 ± 0.11 | 1.36 ± 0.18
SAGGSAGGSAGEFEPVPVLTLPGLDDREVRVVLFKDPPLVLLEVEGAPYVLPAEELLRLASAGGSAGGSAGG [r11_370_TrMRF] | 1.26 ± 0.13 | -0.19 ± 0.09 | 0.856 ± 0.12

Sequence | folding stability dG unfold [1] [kcal/mol] | folding stability dG unfold [2] [kcal/mol] | folding stability dG unfold [3] [kcal/mol]
SAPVVVVETIPDGGVLIVPAVFEPDKLLEYVEEIVNKIKPKGAEVEAKVIKVEPFEDFVVVTFEVKVKPSAG [r14_345_TrMRF] | 1.7 ± 0.032 | 1.69 ± 0.12 | 1.68 ± 0.16
SAGGSAGGKEKLIVKIKIEKKVKLENGEEKKVKKTIVVEMTPEEVKELLKKLKKENVTEVEIFPSAGGSAGG [r6_984_TrROS_Hall] | 2.51 ± 0.31 | 2.7 ± 0.17 | 2.55 ± 0.26
SAGGMKYLVTITITDPDTGQERVIEVEFPDMTPEEIKEAAEELAEEIASEQGLNLKVEVEVTPIPLLSAGGS [r8_185_JUSTAS] | 3.34 ± 0.077 | 3.95 ± 0.11 | 3.55 ± 0.068
SAGGPNVPIRIRVTIERQDPDGEPKDFEFPIEYPMPPDDPEQAKEQIEELAESIAEKHGYKVEIEIEPSAGG [r13_853_TrROS] | -0.45 ± 0.29 | -0.664 ± 0.18 | -0.627 ± 0.55
SAGGSAGGPPVEERELTLPDGTRLTITRYPDSYTVEVTLPDGTVETRTYPDVTPEEAVAAVKAASAGGSAGG [r6_459_JUSTAS] | 1.927 ± 0.013 | 1.68 ± 0.043 | 1.85 ± 0.051
SAMPLDDLPAEQIRELVRSIMRKHGMPPDNVEVDVEVQRPPDGYYYITVDVEMRMNGKERKYKFTIWIPSAG [r14_703_TrROS] | 4.17 ± 0.05 | 2.99 ± 0.072 | 3.75 ± 0.1
SAGGSAGGSAKKVIKAKILEVKVLPDGTGLVKLEGEDGLEVVIPLSILENISPDAIVTIEASAGGSAGGSAG [r3_315_TrMRF] | 1.79 ± 0.039 | 0.916 ± 0.055 | 1.45 ± 0.066
SMKPGQTVTFNVMIRMKDPNMTAQEFAEEAADEIAENFPPGVKIEIKVDDIEPDPPNGEVYFMVKITITVSA [r9_706_TrROS] | 4 ± 0.13 | 2.54 ± 0.17 | 3.35 ± 0.23
SPNLKPVEFPIKIPGYKIRRVSIWKSPDGPVEIFVRFPDGWYYEFEIPPNGDIQPMKITEAVPPDEDKKNSA [r9_1075_TrROS] | 1.14 ± 0.17 | 1.57 ± 0.086 | 1.38 ± 0.16
MVITPEEVAEMLGVSPEELAALPLEELAQRILEVLPAGVATSVTVERDPARGTTTITVTLSDGKNIDVTLES [r1_340_JUSTAS] | 4.61 ± 0.47 | 4.41 ± 0.33 | > 6
SAGGMKPGAPVEIEFPIPGIPPGRRFRIMIHYPNGKHVEAEYTDNTIKIEIPVPDGDNIHHIYIYFYSAGGS [r16_179_TrROS] | 4.33 ± 0.11 | 3.27 ± 0.084 | 3.86 ± 0.12
SFTVERNVYRIENPPKLVVNVIITAEDGTPVPPEVVEEAVRELEKAGFPVKKVSVTPLPDGSVLVTVEVDVS [r1_408_TrMRF] | 2.13 ± 0.071 | 2.84 ± 0.1 | 2.52 ± 0.083
SAMKKIKLSPEALELAKKLPPDYKVTEIKVEKLEDGTVVVTLTVEKTNENGEKEKVELTIVLDKDGKPVSAG [r14_420_TrROS_Hall] | 0.0295 ± 0.46 | 0.619 ± 0.065 | 0.757 ± 0.37
SAGGSAGGSGYLSQERPVTIKLPNGEVVEVDGVVRESPESDVVTVEIPETGQTIEVPKANVVESAGGSAGGS [r12_772_JUSTAS] | -0.035 ± 0.16 | 0.909 ± 0.06 | 0.447 ± 0.1
SAGGSAGGSAMPEEVKLRVVKVKVKEVEVETDENGEKRTRVKAEVVEEREITLPKEELEKLSAGGSAGGSAG [r3_121_TrROS_Hall] | 1.04 ± 0.074 | 2.35 ± 0.18 | 1.76 ± 0.14
SAGGSAKITIKPGETITITIKLENGETVEIRMRVEELPDGTYKITMEITYPDGSKIEMELTLKIKPSAGGSA [r15_476_TrROS_Hall] | 4.43 ± 0.18 | 2.58 ± 0.21 | 4.05 ± 0.44
SAGGKKKPKIRIKVEIDGKTVEVEVESPEELVEALKELGFEVEVVEVTEKTVVIKLKDGKLIRIEKESAGGS [r8_365_TrROS_Hall] | 2.06 ± 0.026 | 1.91 ± 0.072 | 2.02 ± 0.047
SAGGGMNEKVIEIEVTVTAPDGKVTTNPTTVVSNSLEEVKASIKASIPPNWSITVTVLKTKSLKEVLSSAGG [r13_513_JUSTAS] | 0.425 ± 0.081 | 0.667 ± 0.03 | 0.659 ± 0.095
SAGGIPPNDPEYQQKMQLLKEIQNFAKEQQQNGRDVKIETIEINPEDGRVTITVQYPNGKKVTITIPSAGGS [r8_277_TrROS] | 1.56 ± 0.048 | 1.79 ± 0.057 | 1.66 ± 0.064
SAGGSAGGSSPPVTVIPLKIPVDPDTTPEEIKEELAAKVPPNSSVKVDTKPGSGTVNVTVTISSAGGSAGGS [r12_12_JUSTAS] | -0.14 ± 0.11 | 1.12 ± 0.061 | 0.753 ± 0.14
SAGGSAGGSKRKIKVDDVEPPPNGFMRVTLEVDDGKPLVPINIPPGQTPSEVKDQVKDLVEELSAGGSAGGS [r12_798_TrROS] | 3.74 ± 0.41 | 3.86 ± 0.31 | 3.85 ± 0.49
